Columns and labels:
[1] = tested on: HeLa Kyoto; assay: solubility in G1/S (NP-40 vs SDS abundance) (log2 ratio); higher = more soluble; settings: cell cycle stage: G1/S
[2] = tested on: HeLa Kyoto; assay: solubility change mitosis vs G1/S (difference of NP-40 vs SDS log2 ratios) (log2 ratio difference); higher = more soluble in mitosis
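For solubility change mitosis vs G1/S (difference of NP-40 vs SDS log2 ratios) in this document: synchronized HeLa Kyoto cells (double thymidine block for G1/S, nocodazole release for mitosis), protein amounts in NP-40 versus SDS lysates quantified by mass spectrometry, three biological replicates.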
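For solubility in G1/S (NP-40 vs SDS abundance) in this document: HeLa Kyoto cells arrested at G1/S by double thymidine block, proteins quantified by TMT10plex mass spectrometry in mild NP-40 versus SDS extracts, three biological replicates.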

Sequence	solubility in G1/S (log2) [1]	solubility change mitosis (log2) [2]
MDAAEPGLPPGPEGRKRYSDIFRSLDNLEISLGNVTLEMLAGDPLLSEDPEPDKTPTATVTNEASCWSGPSPEGPVPLTGEELDLRLIRTKGGVDAALEYAKTWSRYAKELLAWTEKRASYELEFAKSTMKIAEAGKVSIQQQSHMPLQYIYTLFLEHDLSLGTLAMETVAQQKRDYYQPLAAKRTEIEKWRKEFKEQWMKEQKRMNEAVQALRRAQLQYVQRSEDLRARSQGSPEDSAPQASPGPSKQQERRRRSREEAQAKAQEAEALYQACVREANARQQDLEIAKQRIVSHVRKLVFQGDEVLRRVTLSLFGLRGAQAERGPRAFAALAECCAPFEPGQRYQEFVRALRPEAPPPPPPAFSFQEFLPSLNSSPLDIRKKLSGPLPPRLDENSAEPGPWEDPGTGWRWQGTPGPTPGSDVDSVGGGSESRSLDSPTSSPGAGTRQLVKASSTGTESSDDFEERDPDLGDGLENGLGSPFGKWTLSSAAQTHQLRRLRGPAKCRECEAFMVSGTECEECFLTCHKRCLETLLILCGHRRLPARTPLFGVDFLQLPRDFPEEVPFVVTKCTAEIEHRALDVQGIYRVSGSRVRVERLCQAFENGRALVELSGNSPHDVSSVLKRFLQELTEPVIPFHLYDAFISLAKTLHADPGDDPGTPSPSPEVIRSLKTLLVQLPDSNYNTLRHLVAHLFRVAARFMENKMSANNLGIVFGPTLLRPPDGPRAASAIPVTCLLDSGHQAQLVEFLIVHYEQIFGMDELPQATEPPPQDSSPAPGPLTTSSQPPPPHLDPDSQPPVLASDPGPDPQHHSTLEQHPTATPTEIPTPQSDQREDVAEDTKDGGGEVSSQGPEDSLLGTQSRGHFSRQPVKYPRGGVRPVTHQLSSLALVASKLCEETPITSVPRGSLRGRGPSPAAASPEGSPLRRTPLPKHFEITQETARLLSKLDSEAVPRATCCPDVQPEEAEDHL [GMIP]	0.095	0.0497
MDEEPERTKRWEGGYERTWEILKEDESGSLKATIEDILFKAKRKRVFEHHGQVRLGMMRHLYVVVDGSRTMEDQDLKPNRLTCTLKLLEYFVEEYFDQNPISQIGIIVTKSKRAEKLTELSGNPRKHITSLKEAVDMTCHGEPSLYNSLSMAMQTLKHMPGHTSREVLIIFSSLTTCDPSNIYDLIKTLKAAKIRVSVIGLSAEVRVCTVLARETGGTYHVILDESHYKELLTHHLSPPPASSSSECSLIRMGFPQHTIASLSDQDAKPSFSMAHLDGNTEPGLTLGGYFCPQCRAKYCELPVECKICGLTLVSAPHLARSYHHLFPLDAFQEIPLEEYNGERFCYGCQGELKDQHVYVCAVCQNVFCVDCDVFVHDSLHCCPGCIHKIPAPSGV [GTF2H2C]	-0.398	0.181
MDEKTKKAEEMALSLTRAVAGGDEQVAMKCAIWLAEQRVPLSVQLKPEVSPTQDIRLWVSVEDAQMHTVTIWLTVRPDMTVASLKDMVFLDYGFPPVLQQWVIGQRLARDQETLHSHGVRQNGDSAYLYLLSARNTSLNPQELQRERQLRMLEDLGFKDLTLQPRGPLEPGPPKPGVPQEPGRGQPDAVPEPPPVGWQCPGCTFINKPTRPGCEMCCRARPEAYQVPASYQPDEEERARLAGEEEALRQYQQRKQQQQEGNYLQHVQLDQRSLVLNTEPAECPVCYSVLAPGEAVVLRECLHTFCRECLQGTIRNSQEAEVSCPFIDNTYSCSGKLLEREIKALLTPEDYQRFLDLGISIAENRSAFSYHCKTPDCKGWCFFEDDVNEFTCPVCFHVNCLLCKAIHEQMNCKEYQEDLALRAQNDVAARQTTEMLKVMLQQGEAMRCPQCQIVVQKKDGCDWIRCTVCHTEICWVTKGPRWGPGGPGDTSGGCRCRVNGIPCHPSCQNCH [RBCK1]	0.08	-0.0181
MDEPPFSEAALEQALGEPCDLDAALLTDIEDMLQLINNQDSDFPGLFDPPYAGSGAGGTDPASPDTSSPGSLSPPPATLSSSLEAFLSGPQAAPSPLSPPQPAPTPLKMYPSMPAFSPGPGIKEESVPLSILQTPTPQPLPGALLPQSFPAPAPPQFSSTPVLGYPSPPGGFSTGSPPGNTQQPLPGLPLASPPGVPPVSLHTQVQSVVPQQLLTVTAAPTAAPVTTTVTSQIQQVPVLLQPHFIKADSLLLTAMKTDGATVKAAGLSPLVSGTTVQTGPLPTLVSGGTILATVPLVVDAEKLPINRLAAGSKAPASAQSRGEKRTAHNAIEKRYRSSINDKIIELKDLVVGTEAKLNKSAVLRKAIDYIRFLQHSNQKLKQENLSLRTAVHKSKSLKDLVSACGSGGNTDVLMEGVKTEVEDTLTPPPSDAGSPFQSSPLSLGSRGSGSGGSGSDSEPDSPVFEDSKAKPEQRPSLHSRGMLDRSRLALCTLVFLCLSCNPLASLLGARGLPSPSDTTSVYHSPGRNVLGTESRDGPGWAQWLLPPVVWLLNGLLVLVSLVLLFVYGEPVTRPHSGPAVYFWRHRKQADLDLARGDFAQAAQQLWLALRALGRPLPTSHLDLACSLLWNLIRHLLQRLWVGRWLAGRAGGLQQDCALRVDASASARDAALVYHKLHQLHTMGKHTGGHLTATNLALSALNLAECAGDAVSVATLAEIYVAAALRVKTSLPRALHFLTRFFLSSARQACLAQSGSVPPAMQWLCHPVGHRFFVDGDWSVLSTPWESLYSLAGNPVDPLAQVTQLFREHLLERALNCVTQPNPSPGSADGDKEFSDALGYLQLLNSCSDAAGAPAYSFSISSSMATTTGVDPVAKWWASLTAVVIHWLRRDEEAAERLCPLVEHLPRVLQESERPLPRAALHSFKAARALLGCAKAESGPASLTICEKASGYLQDSLATTPASSSIDKAVQLFLCDLLLVVRTSLWRQQQPPAPAPAAQGTSSRPQASALELRGFQRDLSSLRRLAQSFRPAMRRVFLHEATARLMAGASPTRTHQLLDRSLRRRAGPGGKGGAVAELEPRPTRREHAEALLLASCYLPPGFLSAPGQRVGMLAEAARTLEKLGDRRLLHDCQQMLMRLGGGTTVTSS [SREBF1]	-0.139	-0.263
MDHTDNELQGTNSSGSLGGLDVRRRIPIKLISKQANKAKPAPRTQRTINRMPAKAPPGDEEGFDYNEEERYDCKGGELFANQRRFPGHLFWDFQINILGEKDDTPVHFCDKCGLPIKIYGRMIPCKHVFCYDCAILHEKKGDKMCPGCSDPVQRIEQCTRGSLFMCSIVQGCKRTYLSQRDLQAHINHRHMRAGKPVTRASLENVHPPIAPPPTEIPERFIMPPDKHHMSHIPPKQHIMMPPPPLQHVPHEHYNQPHEDIRAPPAELSMAPPPPRSVSQETFRISTRKHSNLITVPIQDDSNSGAREPPPPAPAPAHHHPEYQGQPVVSHPHHIMPPQQHYAPPPPPPPPISHPMPHPPQAAGTPHLVYSQAPPPPMTSAPPPITPPPGHIIAQMPPYMNHPPPGPPPPQHGGPPVTAPPPHHYNPNSLPQFTEDQGTLSPPFTQPGGMSPGIWPAPRGPPPPPRLQGPPSQTPLPGPHHPDQTRYRPYYQ [CBLL1]	0.175	-0.286
MDIAIHHPWIRRPFFPFHSPSRLFDQFFGEHLLESDLFPTSTSLSPFYLRPPSFLRAPSWFDTGLSEMRLEKDRFSVNLDVKHFSPEELKVKVLGDVIEVHGKHEERQDEHGFISREFHRKYRIPADVDPLTITSSLSSDGVLTVNGPRKQVSGPERTIPITREEKPAVTAAPKK [CRYAB]	-0.171	0.00397
MDLVGVASPEPGTAAAWGPSKCPWAIPQNTISCSLADVMSEQLAKELQLEEEAAVFPEVAVAEGPFITGENIDTSSDLMLAQMLQMEYDREYDAQLRREEKKFNGDSKVSISFENYRKVHPYEDSDSSEDEVDWQDTRDDPYRPAKPVPTPKKGFIGKGKDITTKHDEVVCGRKNTARMENFAPEFQVGDGIGMDLKLSNHVFNALKQHAYSEERRSARLHEKKEHSTAEKAVDPKTRLLMYKMVNSGMLETITGCISTGKESVVFHAYGGSMEDEKEDSKVIPTECAIKVFKTTLNEFKNRDKYIKDDFRFKDRFSKLNPRKIIRMWAEKEMHNLARMQRAGIPCPTVVLLKKHILVMSFIGHDQVPAPKLKEVKLNSEEMKEAYYQTLHLMRQLYHECTLVHADLSEYNMLWHAGKVWLIDVSQSVEPTHPHGLEFLFRDCRNVSQFFQKGGVKEALSERELFNAVSGLNITADNEADFLAEIEALEKMNEDHVQKNGRKAASFLKDDGDPPLLYDE [RIOK3]	0.0978	-0.00535

Reference: the supplement of paper PMC5998384
